Experimental data from patent publication US20190184015A1, “IRRADIATION TREATMENT OF NEUROLOGICAL SENSATIONS BY PHOTOABLATION” (European Molecular Biology Laboratory, priority 2016, published 2019).
Residue numbers refer to the chain shown, from its start. Numbers in names are those of the source.

Columns and labels:
[1] = biological target: T1, IL31 Receptor A (IL31RA) (Mus musculus, UniProt Q8K5B1); experiment: In vivo skin labelling after intradermal injection; settings: wildtype mice; intradermal injection into back skin
T1 construct: from tissue; host or cells: mouse back skin (nape of the neck), in vivo
T1 sequence (Q8K5B1 19-716): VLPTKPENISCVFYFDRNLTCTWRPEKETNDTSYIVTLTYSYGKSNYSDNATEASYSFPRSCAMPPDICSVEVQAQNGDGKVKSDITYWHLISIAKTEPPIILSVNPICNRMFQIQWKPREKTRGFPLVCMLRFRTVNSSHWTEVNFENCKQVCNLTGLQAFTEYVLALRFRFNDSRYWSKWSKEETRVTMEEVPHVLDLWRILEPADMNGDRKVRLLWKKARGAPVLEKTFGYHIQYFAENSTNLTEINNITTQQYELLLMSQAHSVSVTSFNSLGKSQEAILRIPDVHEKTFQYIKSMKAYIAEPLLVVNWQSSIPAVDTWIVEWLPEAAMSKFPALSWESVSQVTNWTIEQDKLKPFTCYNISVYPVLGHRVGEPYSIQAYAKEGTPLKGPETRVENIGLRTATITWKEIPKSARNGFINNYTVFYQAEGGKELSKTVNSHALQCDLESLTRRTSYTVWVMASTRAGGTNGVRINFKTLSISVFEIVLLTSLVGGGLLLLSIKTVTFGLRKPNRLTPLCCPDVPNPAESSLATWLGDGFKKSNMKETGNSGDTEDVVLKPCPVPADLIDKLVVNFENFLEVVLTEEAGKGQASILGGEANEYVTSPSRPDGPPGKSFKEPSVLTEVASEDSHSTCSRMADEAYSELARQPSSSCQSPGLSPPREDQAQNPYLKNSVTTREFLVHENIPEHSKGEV
T1 sequence (O70458 24-971 partner): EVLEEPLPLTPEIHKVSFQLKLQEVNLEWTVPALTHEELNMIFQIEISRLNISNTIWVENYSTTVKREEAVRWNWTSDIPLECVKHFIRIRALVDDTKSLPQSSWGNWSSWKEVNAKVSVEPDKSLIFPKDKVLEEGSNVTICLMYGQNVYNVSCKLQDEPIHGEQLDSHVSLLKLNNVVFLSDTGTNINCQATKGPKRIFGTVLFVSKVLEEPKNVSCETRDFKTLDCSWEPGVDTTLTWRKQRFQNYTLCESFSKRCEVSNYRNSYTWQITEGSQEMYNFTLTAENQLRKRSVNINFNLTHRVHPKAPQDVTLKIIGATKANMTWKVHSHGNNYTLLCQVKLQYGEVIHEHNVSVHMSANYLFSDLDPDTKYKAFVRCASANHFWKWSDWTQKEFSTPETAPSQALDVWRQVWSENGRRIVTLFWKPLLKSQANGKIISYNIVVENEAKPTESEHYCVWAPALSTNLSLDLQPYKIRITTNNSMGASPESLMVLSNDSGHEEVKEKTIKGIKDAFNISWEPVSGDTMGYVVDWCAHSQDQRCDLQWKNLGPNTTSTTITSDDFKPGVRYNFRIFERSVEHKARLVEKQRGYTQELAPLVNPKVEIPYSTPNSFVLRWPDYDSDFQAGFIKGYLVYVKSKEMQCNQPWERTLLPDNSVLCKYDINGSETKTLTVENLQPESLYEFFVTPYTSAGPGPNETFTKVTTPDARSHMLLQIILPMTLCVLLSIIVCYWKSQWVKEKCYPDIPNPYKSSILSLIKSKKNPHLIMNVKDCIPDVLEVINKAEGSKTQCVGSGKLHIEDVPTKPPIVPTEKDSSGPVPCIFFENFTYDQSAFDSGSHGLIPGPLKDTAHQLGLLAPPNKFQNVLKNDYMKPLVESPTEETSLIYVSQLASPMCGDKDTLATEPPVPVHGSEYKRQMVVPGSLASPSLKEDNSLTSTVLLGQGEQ
Description: The inventors produced recombinant IL31 with a C-terminal fusion of SNAP (IL31^SNAP) in E. Coli. […] To determine whether IL31^SNAP was functional the inventors first performed binding studies in primary keratinocyte cultures. IL31^SNAP was labelled in vitro with BG-Surface549 and applied to keratinocytes from wildtype or IL31 Receptor A (IL31RA) knockout mice (IL31RA^−/−). […] The inventors further examined IL31^SNAP labelling in vivo by injecting IL31^SNAP-Surface549 intradermally into the back skin of wild type and IL31RA^−/− mice. […] Finally, the inventors determined whether IL31^SNAP was active by quantifying scratching behavior in mice upon intradermal injection. […] Thus the IL31^SNAP retains the functional properties of native IL31.
For skin labelling, intradermal injection of 5 μM IL31^SNAP coupled with 5 μM BG549surf was performed in the nape of the neck. After […] (30 min) skin was collected, fix in PFA 4% overnight, OCT-embedded and cryo-sectioned (25 μm).

[2] = system: IL31 receptor expressing cells; experiment: In-vivo photo-ablation of skin, TUNEL assay; set-up: species or system mouse; settings: IL31RA^−/− mice; injection and near infrared light
[3] = system: IL31 evoked scratching behavior; experiment: Scratching during three days of IL31^SNAP-IR700 injection and illumination; settings: injected three consecutive days and skin illuminated
[4] = system: primary keratinocytes; experiment: In-vitro photo-ablation of primary keratinocytes (propidium iodide staining); assay type: cell-based, mouse; settings: near infra-red light, 24 hours after
Procedure: 1 μM IL31^SNAP and 3 μM BG-IR700 were coupled for 1 hour at 37° C. The coupling reaction was applied for 10 minutes at 37° C. on primary wild type and IL31RA^−/− keratinocytes. Cells were then exposed to near infra-red light (680 nm) at 40 J/cm^2 for 2 minutes. 24 hours after light exposure cell death was assessed by Propidium iodide (PI) staining (Invitrogen #P3566) and cells were imaged with an epifluorescent microscope.

[5] = system: Calcipotriol model of atopic dermatitis; experiment: Calcipotriol model of atopic dermatitis
[6] = system: mechanical sensitivity; experiment: Von Frey test after photoablation in the hind paw; assay type: in vivo, mouse
Procedure: Mice were habituated on an elevated platform with a mesh floor for 30 minutes. The plantar side of the hind paw was stimulated with calibrated von-Frey filaments (North coast medical #NC12775-99) to assess baseline levels of mechanical sensitivity. The stimulation was then repeated at the 3rd day after the last photoablation performed on the same paw considered for the baseline. As a control group, the animals were injected but not illuminated. The 50% paw withdrawal thresholds were calculated using the Up-Down method (26).

[7] = system: acute itch evoked by IL31, histamine, chloroquine or LY344864; experiment: Pruritogen evoked scratching after photoablation; assay type: in vivo, mouse
Procedure: To characterize IL31^K138A-SNAP mediated photoablation in vivo, the inventors first tested its efficacy at alleviating IL31 provoked itch. Mice were treated for three consecutively days with IL31^K138A-SNAP-IR700 and the skin was illuminated with near-IR light. Strikingly, IL31-induced scratching behavior was abolished in these animals (FIG. 2f), and this persisted throughout an 8 week observation period (Supplementary FIG. 2l). […] The inventors next tested the effects of photoablation on scratching provoked by other acutely applied pruritogens. […] Finally, to assess the specificity of photoablation to itch sensation, the inventors examined other sensory modalities after treatment.

[8] = system: IL31RA expressing cells; experiment: Cell type specificity of photo-ablation in skin; assay type: in vivo
[9] = system: thermal sensitivity; experiment: Hot plate test after photoablation in the hind paw; assay type: in vivo, mouse
Procedure: Mice were injected for three consecutive days with […] coupled with BG-IR700 with or without near IR light illumination. 3 days after the last injection, mice were placed on top of a hot plate (Ugo Basile #35150) that was preset to 52° C. and the latency to response as distinguished by flicking or licking of the hind paw was observed. In order to avoid injury to the mice, a cutoff of 30 seconds was set.

[10] = prevention: injection and near IR illumination 3 days prior to Calcipotriol
[11] = rescue: subcutaneous injection and near IR light after 7 days Calcipotriol
[12] = topical application in water-in-oil micro-emulsion, near IR light
[13] = after photoablation with near-IR light

B1: IL31^SNAP-Surface549: IL31^SNAP labelled in vitro with BG-Surface549 (conjugate)
chain: TCSLSFGAPISKEDLRTTIDLLKQESQDLYNNYSIKQASGMSADESIQLPCFSLDREALTNISVIIAHLEKVKVLSENTVDTSWVIRWLTNISCFNPLNLNISVPGNTDESYDCKVFVLTVLKQFSNCMAELQAKDNTTC
modifications: left off: small tags and cut ends
[1]
  fluorescent signal in cells in skin sections: fluorescent signal was observed

B2: IL31^SNAP-IR700: IL31^SNAP conjugated in vitro to benzylguanine modified IRDye®700DX phthalocyanine (conjugate)
chain: B1 chain
modifications: left off: small tags and cut ends
notes: IL31^SNAP conjugated in vitro to benzylguanine modified IRDye®700DX phthalocyanine
[2]
  TUNEL positive apoptotic cells in skin: largely absent
[3]
  scratching bouts: progressive decrease in scratching bouts
[4]; IL31RA^−/− keratinocytes
  cell death after illumination: not evident
[4]; wild type keratinocytes
  cell death after illumination: substantial cell death

B3: IL31^K138A-SNAP-IR700 (conjugate)
chain: B1 chain with K115A
modifications: left off: small tags and cut ends
[5]; prevention: identical experiments in the absence of near IR illumination
  development of dermatitis-like symptoms: normal development of dermatitis-like symptoms
[5]; [10]
  development of atopic dermatitis-like indicators: completely abolished the development of all indicators
  scratching behavior: remained at baseline levels
  skin appearance: skin appeared healthy and typical features of dermatitis such as redness and scaling were entirely absent
[5]; rescue: after 7 days Calcipotriol, subcutaneous injection and near IR light three days, over the course of 1 week
  disease indicators of established dermatitis: rescue of all disease indicators
[5]; [11]
  scratching behavior: returned to baseline levels
  skin thickness, morphology and structure: became indistinguishable from healthy mice
[5]; rescue: without subsequent near IR illumination (control)
  reversal of dermatitis-like symptoms: not evident
[5]; [12]
  scratching behavior: return to baseline levels of scratching behavior
  skin structure and histology: normalization of skin structure and histology
[5]; topical application in water-in-oil micro-emulsion, near IR light 20 minutes later
  Calcipotriol provoked dermatitis-like symptoms: both prevented and reversed Calcipotriol provoked dermatitis-like symptoms
[6]
  mechanical sensitivity (von Frey filaments): no difference in response properties
[7]; [13]
  LY344864 evoked itch: no significant effect
  chloroquine evoked itch: no significant effect
  histamine evoked itch: no significant effect
[7]; injected but not illuminated (control)
  IL31-evoked scratching: no reduction in IL31-evoked scratching
[7]; three consecutive days treatment with near-IR light
  IL31-induced scratching behavior: abolished
[7]; with near-IR light, observation period
  persistence of abolished IL31-induced scratching: ≥ 8 week
[8]
  effect of photo-ablation on other cell types: does not affect other cell types such as keratinocytes or epidermal Langerhans cells
[9]
  thermal sensitivity (hot plate test): no difference in response properties
